Legend:
recombinant rat TL1A = molecular target: T1, recombinant rat TL1A (rat, UniProt Q8K3Y7 76-252); assay: SPR, antibody injected over captured biotinylated TL1A, 37° C.
T1 construct: biotinylated for SPR capture
T1 sequence: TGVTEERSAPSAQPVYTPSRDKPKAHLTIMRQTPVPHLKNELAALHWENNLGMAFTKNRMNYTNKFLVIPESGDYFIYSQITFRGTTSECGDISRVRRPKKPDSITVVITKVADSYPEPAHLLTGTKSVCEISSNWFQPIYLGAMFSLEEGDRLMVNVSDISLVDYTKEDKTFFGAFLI
Protocol: (§1) For these analyses, kinetic assays were conducted at 37° C. using a collection rate of 10 Hz on a Biacore™ T200 instrument (GE Healthcare). […] The association phase was 90 seconds, and the dissociation phases were 1600 seconds over human, cynomolgus monkey and rabbit TL1A and 180 seconds for mouse and rat TL1A.
(§2) In order to determine binding to TL1A, kinetic assays were conducted at 37° C. using a collection rate of 10 Hz on a Biacore™ T200 instrument (GE Healthcare).

recombinant mouse TL1A = molecular target: T2, recombinant mouse TL1A (mouse, UniProt Q5UBV8 75-252); assay: as above
T2 construct: biotinylated for SPR capture
T2 chain: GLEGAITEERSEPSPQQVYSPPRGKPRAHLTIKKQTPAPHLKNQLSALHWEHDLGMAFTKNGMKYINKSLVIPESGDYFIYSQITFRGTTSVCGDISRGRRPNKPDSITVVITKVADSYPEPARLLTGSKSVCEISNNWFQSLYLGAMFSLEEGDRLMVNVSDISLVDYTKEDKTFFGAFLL
Protocol: as §1, §2

recombinant human TL1A [1] = molecular target: T3, recombinant human TL1A (human, UniProt O95150 71-251); assay: SPR, 37 C; biotinylated human TL1A captured on Biotin CAPture chip, antibody injected
T3 construct: TL1A is described as a homotrimer; Biotinylated for SPR capture; also called TNFSF15
T3 chain: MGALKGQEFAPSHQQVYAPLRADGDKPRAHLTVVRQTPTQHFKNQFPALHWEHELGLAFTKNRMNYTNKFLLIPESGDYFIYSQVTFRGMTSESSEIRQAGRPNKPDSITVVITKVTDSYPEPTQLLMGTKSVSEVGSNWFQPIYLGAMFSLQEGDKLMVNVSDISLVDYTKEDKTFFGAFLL
Protocol: SPR was utilized to determine if the affinity constants of each arm of the bispecific variants binding human IL-23, containing the p40 subunit, and human TL1A were the same for each bispecific approach. For the analysis of the p40 binding arm, kinetic assays were conducted at 37° C. using a collection rate of 10 Hz on a Biacore™ 8 K+ instrument (GE Healthcare). An anti-human IgG antibody (anti-human Fc, GE Healthcare, 22-0648-88) was amine coupled to all four flow cells of a carboxymethylated dextran coated sensor chip (GE Healthcare,) using the manufacturer's recommended protocol. […] For the analysis of the TL1A binding arm, kinetic assays were conducted at 37° C. using a collection rate of 10 Hz on a Biacore™ T200 instrument (GE Healthcare).
As described above in EXAMPLE 12, SPR was utilized to determine if the affinity constants of each arm of the bispecific variants binding human IL-23, containing the p40 subunit, and human TL1A were the same for each bispecific variant.

recombinant human TL1A [2] = molecular target: T3, recombinant human TL1A; assay: cell-based or functional assay
human IL-12 = molecular target: T4, human IL-12 (human, UniProt P29460 23-328; P29459 23-219); assay: cell-based or functional assay
T4 sequence 1: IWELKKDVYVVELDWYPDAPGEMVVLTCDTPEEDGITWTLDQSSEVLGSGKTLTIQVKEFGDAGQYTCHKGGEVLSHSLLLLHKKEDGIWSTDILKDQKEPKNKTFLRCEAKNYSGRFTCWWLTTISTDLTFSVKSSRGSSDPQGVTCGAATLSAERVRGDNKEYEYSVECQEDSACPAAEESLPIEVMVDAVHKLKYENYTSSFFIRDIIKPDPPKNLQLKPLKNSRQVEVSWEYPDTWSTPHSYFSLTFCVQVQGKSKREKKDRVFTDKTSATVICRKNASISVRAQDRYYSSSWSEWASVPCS
T4 sequence 2: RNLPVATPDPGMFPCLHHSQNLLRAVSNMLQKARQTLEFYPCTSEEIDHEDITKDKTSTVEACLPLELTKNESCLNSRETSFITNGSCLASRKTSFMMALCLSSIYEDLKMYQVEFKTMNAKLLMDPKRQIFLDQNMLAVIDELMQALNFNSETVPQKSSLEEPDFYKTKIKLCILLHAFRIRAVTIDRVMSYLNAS

cynomolgus monkey IL-12 = molecular target: T5, cynomolgus monkey IL-12 (cynomolgus monkey); assay: cell-based or functional assay
T5 chain 1: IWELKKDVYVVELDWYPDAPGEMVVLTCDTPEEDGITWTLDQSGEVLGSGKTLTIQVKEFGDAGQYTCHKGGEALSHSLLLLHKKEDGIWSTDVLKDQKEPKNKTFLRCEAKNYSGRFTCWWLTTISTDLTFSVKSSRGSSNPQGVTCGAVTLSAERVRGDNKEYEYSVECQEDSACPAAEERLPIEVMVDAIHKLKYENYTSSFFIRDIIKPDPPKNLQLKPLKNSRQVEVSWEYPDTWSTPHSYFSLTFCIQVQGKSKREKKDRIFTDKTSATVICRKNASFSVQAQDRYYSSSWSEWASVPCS
T5 chain 2: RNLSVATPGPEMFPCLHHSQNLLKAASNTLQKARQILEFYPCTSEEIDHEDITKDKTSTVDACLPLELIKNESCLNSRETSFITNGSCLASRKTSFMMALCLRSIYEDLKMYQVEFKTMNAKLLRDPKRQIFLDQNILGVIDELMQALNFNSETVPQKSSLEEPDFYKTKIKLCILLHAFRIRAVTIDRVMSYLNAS

human IL-23 = molecular target: T6, human IL-23 (human, UniProt P29460 23-328; Q9NPF7 20-189); assay: cell-based or functional assay
T6 sequence 1: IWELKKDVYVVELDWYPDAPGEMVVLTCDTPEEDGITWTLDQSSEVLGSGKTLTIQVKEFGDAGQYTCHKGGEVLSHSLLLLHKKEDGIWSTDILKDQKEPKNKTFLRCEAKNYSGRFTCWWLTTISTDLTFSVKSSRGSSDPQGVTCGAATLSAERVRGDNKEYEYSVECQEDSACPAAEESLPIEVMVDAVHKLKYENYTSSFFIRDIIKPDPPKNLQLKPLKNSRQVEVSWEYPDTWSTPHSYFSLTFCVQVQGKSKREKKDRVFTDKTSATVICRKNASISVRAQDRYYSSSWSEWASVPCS
T6 sequence 2: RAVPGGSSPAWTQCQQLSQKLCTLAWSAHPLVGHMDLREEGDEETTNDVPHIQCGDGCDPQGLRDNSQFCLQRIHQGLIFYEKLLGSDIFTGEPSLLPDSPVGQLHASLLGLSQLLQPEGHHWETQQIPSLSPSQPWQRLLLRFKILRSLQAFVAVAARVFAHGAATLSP

cynomolgus monkey IL-23 = molecular target: T7, cynomolgus monkey IL-23 (cynomolgus monkey, limits assumed); assay: cell-based or functional assay
T7 chain 1: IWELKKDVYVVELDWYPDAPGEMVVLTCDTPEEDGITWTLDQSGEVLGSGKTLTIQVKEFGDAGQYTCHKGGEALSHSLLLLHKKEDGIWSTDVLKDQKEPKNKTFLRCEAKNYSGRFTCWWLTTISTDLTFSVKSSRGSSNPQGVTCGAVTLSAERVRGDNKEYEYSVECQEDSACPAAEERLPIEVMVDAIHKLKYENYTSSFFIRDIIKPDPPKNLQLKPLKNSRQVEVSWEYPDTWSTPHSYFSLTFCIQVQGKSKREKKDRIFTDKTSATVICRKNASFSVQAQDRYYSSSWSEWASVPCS
T7 chain 2: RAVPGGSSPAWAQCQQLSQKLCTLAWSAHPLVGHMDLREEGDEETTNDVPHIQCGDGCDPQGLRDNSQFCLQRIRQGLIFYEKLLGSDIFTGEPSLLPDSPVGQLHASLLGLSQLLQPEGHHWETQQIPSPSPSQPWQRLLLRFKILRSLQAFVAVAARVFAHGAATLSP

B1: p40TL1A-0033 (bispecific antibody, human IgG1, kappa)
chain 1: not shown
chain 2: QVQLVQSGAEVKKPGASVKVSCKASGYDYTYYGISWVRQAPGQGLEWMGWISTYNTGTHYAPSLQGRVTMTTDTSTSTAYMELRSLRSDDTAVYYCARESYYGSGAFRGGMDVWGQGTTVTVSSASTKGPSVFPLAPSSKSTSGGTAALGCLVKDYFPEPVTVSWNSGALTSGVHTFPAVLQSSGLYSLSSVVTVPSSSLGTQTYICNVNHKPSNTKVDKKVEPKSC
heavy: EVQLVQSGAEVKKPGESLKISCKGSGYSFTTYWLGWVRQMPGKGLDWIGIMSPVDSDIRYSPSFQGQVTMSVDKSITTAYLQWNSLKASDTAMYYCARRRPGQGYFDFWGQGTLVTVSSASTKGPSVFPLAPSSKSTSGGTAALGCLVKDYFPEPVTVSWNSGALTSGVHTFPAVLQSSGLYSLSSVVTVPSSSLGTQTYICNVNHKPSNTKVDKKVEPKSCDKTHTCPPCPAPEAAGAPSVFLFPPKPKDTLMISRTPEVTCVVVDVSHEDPEVKFNWYVDGVEVHNAKTKPREEQYNSTYRVVSVLTVLHQDWLNGKEYKCKVSNKALPAPIEKTISKAKGQPREPQVCTLPPSREEMTKNQVSLWCLVKGFYPSDIAVEWESNGQPENNYKTTPPVLDSDGSFFLYSKLTVDKSRWQQGNVFSCSVLHEALHSHYTQKSLSLSPGK
light: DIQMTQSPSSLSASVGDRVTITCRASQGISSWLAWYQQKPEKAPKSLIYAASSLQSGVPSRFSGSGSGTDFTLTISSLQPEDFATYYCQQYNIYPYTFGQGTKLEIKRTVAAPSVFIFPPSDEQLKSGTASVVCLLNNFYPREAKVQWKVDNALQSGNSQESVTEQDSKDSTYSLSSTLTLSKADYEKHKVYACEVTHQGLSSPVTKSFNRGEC
notes: KiH modified-Fd bispecific: TL1A VL-CL-Fc (hole), TL1A mFd, p40 HC (knob), p40 LC; LS
binding result (recombinant rat TL1A): binds | binding result (recombinant mouse TL1A): binds

B2: p40TL1A-0033 bispecific antibody (bispecific antibody, human IgG1, kappa)
heavy: EVQLVQSGAEVKKPGESLKISCKGSGYSFTTYWLGWVRQMPGKGLDWIGIMSPVDSDIRYSPSFQGQVTMSVDKSITTAYLQWNSLKASDTAMYYCARRRPGQGYFDFWGQGTLVTVSSASTKGPSVFPLAPSSKSTSGGTAALGCLVKDYFPEPVTVSWNSGALTSGVHTFPAVLQSSGLYSLSSVVTVPSSSLGTQTYICNVNHKPSNTKVDKKVEPKSCDKTHTCPPCPAPEAAGAPSVFLFPPKPKDTLMISRTPEVTCVVVDVSHEDPEVKFNWYVDGVEVHNAKTKPREEQYNSTYRVVSVLTVLHQDWLNGKEYKCKVSNKALPAPIEKTISKAKGQPREPQVCTLPPSREEMTKNQVSLWCLVKGFYPSDIAVEWESNGQPENNYKTTPPVLDSDGSFFLYSKLTVDKSRWQQGNVFSCSVLHEALHSHYTQKSLSLSPGK
light: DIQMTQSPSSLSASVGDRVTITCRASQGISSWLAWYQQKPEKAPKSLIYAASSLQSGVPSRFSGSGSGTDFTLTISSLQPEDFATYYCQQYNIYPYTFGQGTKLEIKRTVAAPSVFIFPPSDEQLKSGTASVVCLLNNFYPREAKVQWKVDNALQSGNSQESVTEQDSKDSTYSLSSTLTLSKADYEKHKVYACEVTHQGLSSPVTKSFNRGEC
chain 1: not shown
chain 2: QVQLVQSGAEVKKPGASVKVSCKASGYDYTYYGISWVRQAPGQGLEWMGWISTYNTGTHYAPSLQGRVTMTTDTSTSTAYMELRSLRSDDTAVYYCARESYYGSGAFRGGMDVWGQGTTVTVSSASTKGPSVFPLAPSSKSTSGGTAALGCLVKDYFPEPVTVSWNSGALTSGVHTFPAVLQSSGLYSLSSVVTVPSSSLGTQTYICNVNHKPSNTKVDKKVEPKSC
notes: Single cell KiH, modified Fd format; IgG1 effector-function-minimized Fc with LS mutations
Kd (recombinant human TL1A [1]): 0.622 nM | koff (recombinant human TL1A [1]): 8.21e-05 s⁻¹ | kon (recombinant human TL1A [1]): 132000 M⁻¹ s⁻¹ | NF-κB assay IC50 (TF-1 reporter cells, 384-well) (recombinant human TL1A [2]): 0.31 nM | KIT-225 STAT4 phosphorylation, Human IL-12 IC50 (human IL-12): 1.11 nM | KIT-225 STAT4 phosphorylation, Cynomolgus Monkey IL-12 IC50 (cynomolgus monkey IL-12): 0.95 nM | KIT-225 STAT3 phosphorylation, Human IL-23 IC50 (human IL-23): 3.73 nM | KIT-225 STAT3 phosphorylation, Cynomolgus Monkey IL-23 IC50 (cynomolgus monkey IL-23): 4.34 nM

Source: patent publication US20240059799A1 (Pfizer, published 2024)
